The source of these data is patent publication US20220017620A1.

This assay deals with B7-H3 on Hs-700T pancreatic cancer cells (UniProt Q5ZPR3). Put plainly: cell-based ELISA on fixed Hs-700T cells.

B1: P1D1 full-length IgG1 antibody (antibody, V domains shown)
VH: QVQLVQSGAEVKKPGESLKISCKGSGYSFTSYWIGWVRQMPGKGLEWMGIIYPGDSDTRYSPSFQGQVTISADKSISTAYLQWSSLKASDTAMYYCARRSVAGLDYWGQGTLVTVSS
VL: KTVVTQPPSASGTPGQRVTISCSGSSSNIGSKYVYWYQQLPGTAPRLLIYRNNQRPSGVPDRFSGSKSGTSASLAISGLRSEDESDYYCASWDDRLKGYAFGTGTKVTVL
Consider B1, for which the EC50 (read off the curve) was determined as 0.03 µg/mL.

B2: P1G2 full-length IgG1 antibody (antibody, V domains shown)
VH: QVQLQQSGAEVKKPGSSVKVSCKASGGTFSSYAISWVRQAPGQGLEWMGRIIPILGIANYAQKFQGRVTITADKSTSTAYMELSSLRSEDTAVYYCAVNYYDSSGYYSDYWGQGTLVTVSS
VL: SYELTQPPSASGSPGQSVTISCTGTSSDVGGYNYVSWYQQHPGKAPRLMIYGVSQRPSGVPDRFSGSKSGNTASLTVSGLQAEDEADYYCSSYANNNYVFGTGTKVTVL
Regarding B2, the 50% effective concentration (EC50 (read off the curve)) worked out at 0.03 µg/mL.
